From patent US7026282B1, “Peptide antagonists of the human urokinase receptor and method for selecting them” (Cancerforskningsfonden AF 1989 (Fonden Til Fremme AF …, priority 1998, dated 2006) come the findings set out here.

Usually IC50 stands for the midpoint of a concentration-inhibition curve.

For series [1], the target named is T1, neuramimidase-treated human suPAR (soluble recombinant uPAR) (Homo sapiens, UniProt Q03405).
T1 construct: A soluble recombinant variant of human uPAR (suPAR) was expressed in Chinese hamster ovary (dhfr) cells; made in house; host or cells: Chinese hamster ovary (dhfr) cells
Nature of the series: Biacore Binding Assay (surface plasmon resonance), ligand binding to immobilised suPAR. Conditions: for koff: Biacore, 5° C., immobilised suPAR, read-out: kdiss (dissociation rate constant, off-rate). The protocol:
Association rate constants (kass), dissociation rate constants (kdiss) and equilibrium binding constants (kd) for various synthetic peptides and receptor binding derivatives of human uPA were determined by surface plasmon resonance (R. Karlsson et al. (1991) J. Immunol. Meths. 145:229–240) using a BIAcore2000™ instrument (Pharmacia Biosensor, Uppsala, Sweden). Due to the low isoelectric point of uPAR (pI≈4.5) terminal sialic acid residues were removed from its N-linked carbohydrates to facilitate chemical immobilisation on the sensor chip. This was accomplished by incubating purified suPAR (1 mg/ml in 50 mM phosphate, 150 mM NaCl, pH 7.4) with 5 μg/ml neuramimidase for 4 hours at 37° C. […] Coupling of the neuramimidase-treated suPAR to a BIAcore sensor chip was achieved by injection of 20 μg/ml suPAR in 10 mM sodium acetate pH 5.0 for 6 minutes at a flow rate of […] per minute using a carboxymethylated dextran matrix (CM5 sensor chip) preactivated with N-hydroxysuccinimide/N-ethyl-N′-[3-([…])propyl]carbodiimide according to the manufacturer's recommendations. Approximately 1,500–2,000 resonance units (RU) were immobilised by this procedure (corresponding to 1–2 ng suPAR/mrn^2).
Sensorgrams (RU versus time) were recorded (FIG. 2) at a flow rate of 10 μl per min at 5° C. using several different concentrations of the ligand (synthetic peptides, uPA, the amino-terminal fragment (ATF) of uPA, or the growth factor domain (GFD) of uPA) in the range of 10 to 1000 nM in running buffer (10 mM HEPES, 150 mM NaCl, 3 mM EDTA (pH 7.4) including 0.005% surfactant P-20). Stock solutions of peptides from combinatorial chemistry were made in DMSO (10 mg peptide/ml DMSO). The sensor chip was regenerated at the end of each run by injection of 0.1 M acetic acid, 0.5 M NaCl. Data obtained from parallel mock coupled flow cells (subjected to the coupling procedure in the presence of buffer only) served as blank sensorgrams for subtraction of changes in bulk refractive index. The sensorgrams obtained were analysed by non-linear least squares fitting using BIAevaluation 2.0 software (Pharmacia Biosensor, Uppsala, Sweden) assuming single-site association and dissociation models.
Purified human suPAR (1 mg/ml in 50 mM phosphate, 150 mM NaCl, pH 7.4) was incubated with 5 μg/ml neuramimidase for 4 hours at 37° C.
In order to couple the neuramimidase-treated suPAR to a BIAcore sensor chip, 20 μg/ml suPAR in 10 mM sodium acetate (pH 5.0) was injected for 6 minutes at a flow rate of 5 μl per minute using a carboxymethylated dextran matrix (CM5 sensor chip), thereby immobilising approximately 1,500–2,000 resonance units (RU), which correspond to 1–2 ng suPAR/mm^2. The CM5 sensor chip was preactivated with N-hydroxysuccinimide/N-ethyl-N′-[3-([…])propyl]carbodiimide in accordance with the manufacturer's recommendations.
Surface plasmon resonance sensorgrams (RU versus time) were recorded at a flow rate of 10 μl per min at 5° C. using several different concentrations of the ligand (i.e. the relevant peptide or GFD) in the range from 10 to 1000 nM in running buffer (10 mM HEPES, 150 mM NaCl, 3 mM EDTA (pH 7.4) including 0.005% surfactant P-20).
The sensor chip was regenerated at the end of each run by injection of 0.1 M acetic acid, 0.5 M NaCl.
Data from parallel mock coupled flow cells (subjected to the coupling procedure in the presence of buffer only) served as blank sensorgrams for subtraction of changes in bulk refractive index.
The obtained sensorgrams were analysed by non-linear least squares fitting using BIAevaluation 2.0 software (Pharmacia Biosensor, Uppsala, Sweden) assuming single-site ssociation and dissociation models.

Series [2] deals with cell-surface uPAR on monolayer cultures of human MDA-MB-231 breast cancer cells (Homo sapiens, UniProt Q03405). Nature of the series: Cell binding experiments with 125I-labelled human ATF (uPA/uPAR Binding Assay). The protocol: The peptides were tested for their ability to inhibit binding of radio-labelled amino terminal fragment (ATF) of human uPA to monolayer cultures of human MDA-MB-231 breast cancer cells.
MDA-MB-231 BAG cells were harvested by trypsin/EDTA treatment and added to 5% FCS supplemented medium in 24 well cluster plates at a cell density of 100,000 cells per well or as indicated otherwise. For background estimation, wells without cells were included in order to measure binding of ^125I-labelled ligand to the plastic. Next day the adherent monolayers were washed twice in binding-buffer (0.1% bovine serum albumin (BSA; Fraction V, Sigma) and 5 mM Hepes in Eagles MEM supplemented with Glutamax-1, pH 7.4). Before binding experiments, the cells were subjected to acid treatment to liberate receptor-bound endogenous uPA. Each culture well was incubated for 3 min at 23° C. with 200 μL of 0.05 M glycine-HCl, 0.1 M NaCl, pH 3.0, after which 200 μL of 0.5 M Hepes, 0.1 M NaCl pH 7.5 was added to neutralize the acid buffer. The wells were then emptied and washed once with binding buffer. Various competitors diluted in binding buffer were then added to the wells, followed by a pre-incubation at 37° C. for 15 min. Finally, ^125I-labelled ligand was added to each well at a final concentration of 1 nM. […] Aliquots from the wells were finally measured for radioactivity on a γ-counter.

Series [3] is described as follows: Peptide stability in mouse serum ex vivo, read out by ATF cell-binding inhibition. It counts as in vitro ADME. The note with it: 10% mouse serum, up to 24 hours, 37° C. The protocol: Mouse blood was collected from anaesthetised mice (femal nu/nu-META/Bom (Bomholtgaard, Ry, Denmark)) by cardiac puncture. The blood samples were allowed to clot for 30 min at room temperature, followed by centrifugation at 1,000×g for 10 min at 20° C., and the sera were sterile filtered using 0.8 μm/0.2 μm filters (Acrodisc PF, Gelman Science, MI) and then stored at 4° C. until use. The peptide antagonists were added to fresh pooled mouse serum at the indicated concentrations (FIG. 5) and incubated at 37° C. for different periods, between 0 hours and 24 hours. Serum incubated samples were diluted 1:10 in binding buffer (0.1% bovine serum albumin and 5 mM Hepes in Eagles MEM supplemented with Glutamax-1, pH 7.4). Subsequently, cell binding experiments in the presence of ^125I-labelled human ATF were performed in duplicates as above, by preincubating MDA-MB-231 BAG cells at 37° C. 15 min with the 1:10 diluted serum incubated samples ± peptides. In parallel, peptides diluted in binding buffer alone were included as controls.
AE118 and AE78 (for comparison) were incubated at 37° C. in the presence of 10% mouse serum for different time intervals, up to 24 hours. The incubation mixtures were tested for their ability to inhibit binding of radio-labelled human uPA amino terminal fragment (ATF) to monolayer cultures of human MDA-MB-231 breast cancer cells, as described in Example 7.

Series [4] concerns the target soluble recombinant variant of human uPAR (suPAR) (human) (UniProt Q03405). Nature of the series: SPR (Biacore), ligand over immobilised neuramimidase-treated human suPAR.
Series [5] deals with T2, human uPAR on the surface of human MDA-MB-231 breast cancer cells (human, UniProt Q03405 23-305).
T2 construct: whole, on cells; also called cell-surface uPAR
The experiment in a line: competition with 1 nM ^125I-labelled human ATF for binding to MDA-MB-231 cell monolayers.
Description: Next day the adherent monolayers were washed twice in binding-buffer (0.1% bovine serum albumin (BSA; Fraction V, Sigma) and 5 mM Hepes in Eagles MEM supplemented with Glutamax-1, pH 7.4). Before binding experiments, the cells were subjected to acid treatment to liberate receptor-bound endogenous uPA. Each culture well was incubated for 3 min at 23° C. with 200 µL of 0.05 M glycine-HCl, 0.1 M NaCl, pH 3.0, after which 200 µL of 0.5 M Hepes, 0.1 M NaCl pH 7.5 was added to neutralize the acid buffer. The wells were then emptied and washed once with binding buffer. Various competitors diluted in binding buffer were then added to the wells, followed by a pre-incubation at 37° C. for 15 min. […] Cells were incubated at 4° C. for 60 min, and then washed three times in binding-buffer. Subsequently, the cells were lysed by addition of 1 N NaOH to the wells. Aliquots from the wells were finally measured for radioactivity on a γ-counter.

Series [6] concerns the target soluble recombinant variant of human uPAR (suPAR) (human) (UniProt Q03405). The experiment in a line: SPR (Biacore), immobilised human suPAR. (In general: In SPR one partner is held on a chip, and binding of the other changes the refractive index at the surface.)

Entries after “also recorded” stand apart in the source; their conditions may differ. Positions of bridges follow the written chain, without caps; N, C: chain ends. Non-standard residues stand in square brackets, D forms with d. Residues, ends and D or L forms follow the SMILES beside them. Chains are numbered I, II in the order given. No end group written: not given here. 1Nal = N[C@@H](Cc1cccc2ccccc12)C(=O)O; Cha = N[C@@H](CC1CCCCC1)C(=O)O; βAla = NCCC(=O)O

Chain of cell-surface uPAR on monolayer cultures of human MDA-MB-231 breast cancer cells (Q03405 23-305): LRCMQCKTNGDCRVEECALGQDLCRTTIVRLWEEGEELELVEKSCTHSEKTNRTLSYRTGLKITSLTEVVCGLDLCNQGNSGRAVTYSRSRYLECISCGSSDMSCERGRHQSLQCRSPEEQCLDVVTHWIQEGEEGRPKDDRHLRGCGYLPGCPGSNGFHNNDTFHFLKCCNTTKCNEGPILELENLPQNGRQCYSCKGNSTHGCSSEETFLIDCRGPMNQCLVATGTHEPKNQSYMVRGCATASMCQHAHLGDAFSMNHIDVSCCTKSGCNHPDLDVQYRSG
Chain of soluble recombinant variant of human uPAR (suPAR) (human) (Q03405 23-299, change not shown): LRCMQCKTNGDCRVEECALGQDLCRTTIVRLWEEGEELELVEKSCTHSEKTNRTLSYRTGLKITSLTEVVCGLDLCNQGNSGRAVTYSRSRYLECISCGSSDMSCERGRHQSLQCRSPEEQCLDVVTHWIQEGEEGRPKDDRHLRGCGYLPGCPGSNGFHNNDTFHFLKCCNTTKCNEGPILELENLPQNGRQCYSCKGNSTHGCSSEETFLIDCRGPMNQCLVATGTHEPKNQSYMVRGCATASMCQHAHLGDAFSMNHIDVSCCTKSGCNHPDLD
T2 sequence (Q03405 23-305): as the sequence (Q03405 23-305) above

On to `CC(C)C[C@H](NC(=O)[C@H](Cc1ccc(O)cc1)NC(=O)[C@@H](CCCNC(=N)N)NC(=O)[C@@H](CO)NC(=O)[C@H](Cc1ccccc1)NC(=O)[C@H](CC1CCCCC1)NC(=O)[C@@H](N)CC(=O)O)C(=O)N[C@@H](Cc1c[nH]c2ccccc12)C(=O)N[C@@H](CO)C(=O)O` [AE105, DchaFsrYLWS], for which the koff in series [1] turned out to be 0.00021 s⁻¹. Besides, the “off-rate, fold slower than AE78” value in series [1] (compared with AE78) was determined as 48 fold. In series [1] (relative to the Growth Factor Domain of uPA (GFD = 1.0)), the Relative kdiss is 1.5. Besides, in series [2] (1 nM 125I-labelled human ATF, 0.1% BSA, read-out: IC50, inhibition of the binding of ATF to MDA-MB-231 cells), the IC50 came to 10 nM. In addition, the “effectiveness in inhibiting radio-labelled human ATF binding to cell-surface uPAR” value in series [2] (0.1% bovine serum albumin) was “more effective than the reference peptide AE78”.

As to `CC(C)C[C@H](NC(=O)[C@H](Cc1ccc(O)cc1)NC(=O)[C@@H](CCCNC(=N)N)NC(=O)[C@@H](CO)NC(=O)[C@H](Cc1ccccc1)NC(=O)[C@H](CC1CCCCC1)NC(=O)[C@@H](N)CC(=O)O)C(=O)N[C@@H](Cc1c[nH]c2ccccc12)C(=O)N[C@@H](CO)C(=O)NCC(=O)NCCCC[C@H](NC(=O)CNC(=O)[C@H](CO)NC(=O)[C@H](Cc1c[nH]c2ccccc12)NC(=O)[C@H](CC(C)C)NC(=O)[C@H](Cc1ccc(O)cc1)NC(=O)[C@@H](CCCNC(=N)N)NC(=O)[C@@H](CO)NC(=O)[C@H](Cc1ccccc1)NC(=O)[C@H](CC1CCCCC1)NC(=O)[C@@H](N)CC(=O)O)C(=O)O` [AE118, [DChaFsrYLWSG]2-K] (I: H-D[Cha]F[dS][dR]YLWSGK-OH / II: H-D[Cha]F[dS][dR]YLWSG; amide I:11-II:C; N-terminus and C-terminus assumed), the koff in series [1] was determined as 4e-05 s⁻¹. In addition, in series [3], the “ability to inhibit ATF binding after incubation in mouse serum (stability)” value was “only a slight reduction; also recorded: more resistant than AE78”.

B1: AE111 (peptide)
peptide: LNF[dS]QYLWS
For B1, in series [4], the Relative kdiss (relative to GFD) stood at 7.5 and the koff was 0.00105 s⁻¹.

B2: AE78 (peptide)
peptide: AEPMPHSLNFSQYLWYT
notes: also called Clone 20
For B2, the Relative kdiss (relative to GFD) in series [4] came out at 72.1. Moreover, the IC50 in series [5] stood at 200 nM.

B3: AE113 (peptide)
peptide: DNF[dS][dR]YLWS
Regarding B3, the Relative kdiss (relative to GFD) in series [4] was greater than 100.

B4: AE112 (peptide)
peptide: DFF[dS][dR]YLWS
Consider B4, for which, in series [4], the Relative kdiss (relative to GFD) amounted to 12.9 and the koff came to 0.00181 s⁻¹.

B5: AE115 (peptide)
peptide: [dE][Cha]F[dS]YYLWS
For B5, in series [4], the Relative kdiss (relative to GFD) is 11.9 and the koff is 0.00167 s⁻¹.

B6: AE105 (peptide)
peptide: DXFSRYLWS
modifications: beta-cyclohexyl-L-alanine (Cha) at 2; D-Ser at 4; D-Arg at 5
B6: the Relative kdiss (relative to GFD) in series [4] came out at 1.5. Also, in series [6], the fold slower off-rate than AE78 was 48 fold.

B7: AE114 (peptide)
peptide: D[Cha]F[dS][dR]YL[1Nal]S
As for B7, in series [4], the Relative kdiss (relative to GFD) worked out at 4.2 and the koff was 0.00059 s⁻¹.

B8: AE118 (peptide)
peptide 1: D[Cha]F[dS][dR]YLWSGK
peptide 2: D[Cha]F[dS][dR]YLWSG
modifications: also: lactam at chain A 11 at chain B 10 to a chain's C-terminus
notes: also called [DChaFsrYLWSG]2-K; dimer AE118
For B8, in series [4], the Relative kdiss (relative to GFD) came to 0.28. The fold slower off-rate than the monomer AE105 in series [6] is 5 to 7 times. Moreover, the IC50 in series [5] worked out at 2 nM.

B9: Lcha (peptide)
peptide: SL[Cha]F[dS]QYLWS
Consider B9, for which, in series [4], the Relative kdiss (relative to GFD) worked out at 24.9 and the koff is 0.00349 s⁻¹.

B10: AE110 (peptide)
peptide: DXFSRYLWS
modifications: beta-cyclohexyl-L-alanine (Cha) at 2; D-Ser at 4
Take B10: in series [4], the Relative kdiss (relative to GFD) turned out to be 2 and the koff is 0.00028 s⁻¹.

B11: AE120 (peptide)
peptide 1: D[Cha]F[dS][dR]YLWSG[βAla]K
peptide 2: D[Cha]F[dS][dR]YLWSG
modifications: also: lactam at chain A 12 at chain B 10 to a chain's C-terminus
B11: the Relative kdiss (relative to GFD) in series [4] amounted to 0.21. Besides, in series [6], the fold slower off-rate than the monomer AE105 was 5 to 7 times.
